This is an account of results in PMC5886089, “Biophysical and functional characterization of hippocalcin mutants responsible for human dystonia” (Human Molecular Genetics, 2017).

This series concerns the molecule itself. Nature of the series: cross-linking; in vitro cross-link (BS3 or DSP) of purified protein in the presence of calcium; densitometry after DSP.

B1: hippocalcin(A190T) (natural protein)
chain: not shown
notes: human hippocalcin (HPCA) with the dystonia-causing mutation A190T, in pGEX-6P1; unmyristoylated; Mutation found homozygous in DYT2 dystonia patients; also called HPCA A190T; A190T mutant; source: E. coli BL21(DE3) STAR, purified (GST resin, PreScission cleavage, Superdex 200); not shown: GST, N-terminal, cleaved
Consider B1, for which the binding result is “binds”.

B2: hippocalcin(T71N) (natural protein)
chain: not shown
notes: human hippocalcin (HPCA) with the dystonia-causing mutation T71N, in pGEX-6P1; unmyristoylated; Mutation found homozygous in DYT2 dystonia patients; also called HPCA T71N; T71N mutant; source: E. coli BL21(DE3) STAR, purified (GST resin, PreScission cleavage, Superdex 200); not shown: GST, N-terminal, cleaved
Take B2: the binding result was “binds”.
